# In paper PMC4226571, “The E6AP Binding Pocket of the HPV16 E6 Oncoprotein Provides a Docking Site for a Small Inhibitory Peptide Unrelated to E6AP, Indicating Druggability of E6” (PLoS ONE, 2014):
# B1: wildtype HPV31 E6 fused to the VP16 transcriptional activation domain [human papillomavirus type 31] / pep11** fused to the GAL4 DNA binding domain (parent complex)
# chain 1: MFKNPAERPRKLHELSSALEIPYDELRLNCVYCKGQLTETEVLDFAFTDLTIVYRDDTPHGVCTKCLRFYSKVSEFRWYRYSVYGTTLEKLTNKGICDLLIRCITCQRPLCPEEKQRHLDKKKRFHNIGGRWTGRCIACWRRPRTETQV
# chain 2: KEKEEYNSNCSCIACIGLI
# Variants of: B1
# Assay: mammalian two-hybrid; E6 constructs contain an additional flag-tag between E6 and the VP16-AD; RLA relative to pep11**-GAL4-BD + empty pACT set at 1.0; read off a plot
row,Variant,response [RLA]
1,chain 1 MFKNPAERPRKLHELSSALEIPYDELRLNCVYCKGQLTETEVLDFAFTDLTIVYRDDTPHGVCTKCLRFYSKVSEFRHYRYSVYGTTLEKLTNKGICDLLIRCITCQRPLCPEEKQRHLDKKKRFHNIGGRWTGRCIACWRRPRTETQV [chain 1 W78H],~39
2,chain 1 MFKNPAERPRKLHELSSALEIPYDELRLNCVYCKGQLTETEVLDFAFTDLTIVYRDDTPHGVCTKCLRFYSKVSEFRAYRYSVYGTTLEKLTNKGICDLLIRCITCQRPLCPEEKQRHLDKKKRFHNIGGRWTGRCIACWRRPRTETQV [chain 1 W78A],~1.2
